From article PMC5923229, “The cysteine-reactive small molecule ebselen facilitates effective SOD1 maturation” (Nature Communications, 2018) come the findings set out here.

B1: artificial disulphide knockout SOD1 mutant C57A/C146A (enzyme)
chain: not shown
notes: superoxide dismutase-1 (SOD1), C57A/C146A; also called ebselen-free SOD1; source: E. coli BL21 (DE3), purified (diethylaminoethyl cellulose); treated with DMSO
B2: copper chaperone for SOD1 (hCCS), wild-type (natural protein, UniProt O14618 1-274, looked up)
chain: MASDSGNQGTLCTLEFAVQMTCQSCVDAVRKSLQGVAGVQDVEVHLEDQMVLVHTTLPSQEVQALLEGTGRQAVLKGMGSGQLQNLGAAVAILGGPGTVQGVVRFLQLTPERCLIEGTIDGLEPGLHGLHVHQYGDLTNNCNSCGNHFNPDGASHGGPQDSDRHRGDLGNVRADADGRAIFRMEDEQLKVWDVIGRSLIIDEGEDDLGRGGHPLSKITGNSGERLACGIIARSAGLFQNPKQICSCDGLTIWEERGRPIAGKGRKESAQPPAHL
notes: copper chaperone for SOD1 (hCCS), wild type; Desalted into ligand-free, nitrogen-purged buffer

In series [1] the target is B2. Description: SEC; C57A/C146A SOD1 with or without ebselen (25 uM SOD1, 100 uM ebselen, 3 h, 20 C) and hCCS; complex formed with 250 pmol of both SOD1 and hCCS. The note with it: both partners purified.
Series [2] deals with the molecule itself. The series is described as above.

Turning to B1, in series [1], the binding result is recorded as “binds”. As to B2, in series [2], the “stoichiometry N” value amounted to 2.

One may read the stoichiometry N as the number of molecules, sites or subunits per partner or assembly.
